Experimental data reported in patent publication USRE47123 (Sanofi, dated 2018).
Changes are numbered by the printed parent chain.

How the values were obtained:
human EphA2 receptor [1] = molecular target: T1, human EphA2 receptor (human, UniProt P29317 24-976); test: FACS titration on cells with human EphA2, same protocol (apparent KD)
T1 construct: whole, on cells; also called hu-EphA2

human EphA2 receptor [2] = molecular target: T1, human EphA2 receptor; test: FACS titration on HUVEC cells (apparent KD)
human EphA2 receptor [3] = molecular target: T1, human EphA2 receptor; test: FACS titration on cells with human EphA2, non-linear regression for one-site binding (apparent KD)
[4] = molecular target: T2, monkey EphA2 on VERO cells (monkey (Cercopithecus aethiops)); test: FACS titration on monkey VERO cells, non-linear regression for one-site binding (apparent KD)
T2 construct: whole, on cells

murine EphA2 receptor = molecular target: T3, murine EphA2 receptor (murine, UniProt Q03145 26-977); test: FACS, cells over-expressing murine EphA2
T3 construct: whole, on cells; also called mu-EphA2
T3 sequence (Q03145 26-977): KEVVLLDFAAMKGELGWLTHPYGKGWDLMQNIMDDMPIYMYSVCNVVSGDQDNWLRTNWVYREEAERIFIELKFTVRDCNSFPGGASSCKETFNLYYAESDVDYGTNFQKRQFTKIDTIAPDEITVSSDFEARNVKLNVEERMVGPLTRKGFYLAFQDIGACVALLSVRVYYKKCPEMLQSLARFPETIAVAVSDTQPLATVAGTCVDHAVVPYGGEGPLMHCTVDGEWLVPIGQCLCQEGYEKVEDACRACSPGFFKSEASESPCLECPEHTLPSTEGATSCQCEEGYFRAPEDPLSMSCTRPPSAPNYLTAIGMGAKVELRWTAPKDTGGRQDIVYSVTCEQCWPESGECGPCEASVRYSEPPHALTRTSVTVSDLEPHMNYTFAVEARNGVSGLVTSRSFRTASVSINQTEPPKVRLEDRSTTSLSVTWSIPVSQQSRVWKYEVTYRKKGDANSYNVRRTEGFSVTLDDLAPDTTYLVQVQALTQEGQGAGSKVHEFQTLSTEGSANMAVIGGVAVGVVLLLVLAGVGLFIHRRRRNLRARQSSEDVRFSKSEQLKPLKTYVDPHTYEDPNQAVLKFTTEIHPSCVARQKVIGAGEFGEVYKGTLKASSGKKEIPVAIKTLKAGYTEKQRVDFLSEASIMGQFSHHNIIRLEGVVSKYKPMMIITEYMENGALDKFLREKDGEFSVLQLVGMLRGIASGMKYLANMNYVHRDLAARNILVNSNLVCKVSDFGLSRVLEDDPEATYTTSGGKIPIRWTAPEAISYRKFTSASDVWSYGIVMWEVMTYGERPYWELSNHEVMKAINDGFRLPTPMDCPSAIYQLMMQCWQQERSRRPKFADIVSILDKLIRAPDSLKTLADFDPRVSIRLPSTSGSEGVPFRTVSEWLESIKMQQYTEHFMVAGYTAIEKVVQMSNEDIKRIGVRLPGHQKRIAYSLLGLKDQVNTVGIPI

human EphA2 receptor [5] = molecular target: T1, human EphA2 receptor; test: FACS titration on HUVEC cells, non-linear regression for one-site binding (apparent KD)

T1 sequence (P29317 24-976): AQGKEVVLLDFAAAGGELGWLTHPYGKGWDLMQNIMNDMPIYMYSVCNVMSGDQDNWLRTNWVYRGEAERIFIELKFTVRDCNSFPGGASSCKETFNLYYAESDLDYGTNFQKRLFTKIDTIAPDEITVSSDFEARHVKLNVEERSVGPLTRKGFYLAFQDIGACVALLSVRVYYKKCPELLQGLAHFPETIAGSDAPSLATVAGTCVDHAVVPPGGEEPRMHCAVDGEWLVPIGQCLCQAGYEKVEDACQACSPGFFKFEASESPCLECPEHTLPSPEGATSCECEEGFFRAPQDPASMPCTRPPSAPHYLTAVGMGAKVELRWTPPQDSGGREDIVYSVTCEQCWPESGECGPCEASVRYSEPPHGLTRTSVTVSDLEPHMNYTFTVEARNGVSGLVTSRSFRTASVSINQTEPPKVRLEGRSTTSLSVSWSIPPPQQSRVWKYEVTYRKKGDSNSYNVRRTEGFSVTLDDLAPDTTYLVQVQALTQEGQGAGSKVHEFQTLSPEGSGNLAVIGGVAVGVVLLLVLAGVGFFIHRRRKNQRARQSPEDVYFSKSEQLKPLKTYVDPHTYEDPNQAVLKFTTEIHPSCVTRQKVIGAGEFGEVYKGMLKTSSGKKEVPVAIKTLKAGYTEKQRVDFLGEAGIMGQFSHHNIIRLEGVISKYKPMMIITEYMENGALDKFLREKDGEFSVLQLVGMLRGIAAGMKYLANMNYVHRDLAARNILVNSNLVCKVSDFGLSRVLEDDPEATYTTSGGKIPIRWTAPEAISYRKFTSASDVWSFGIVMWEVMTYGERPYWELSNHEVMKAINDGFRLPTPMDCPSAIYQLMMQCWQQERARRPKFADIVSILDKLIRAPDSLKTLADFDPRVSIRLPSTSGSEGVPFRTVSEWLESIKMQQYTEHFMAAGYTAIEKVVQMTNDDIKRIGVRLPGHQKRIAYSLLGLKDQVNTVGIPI

B1: murine anti-EphA2 monoclonal antibody EphA2-N1 (antibody, V domains shown)
VH: EVQLQQSGPDLVKPGASVKISCKASGYRFTEYNMHWMKQSHGESLEWIGYIYPYNGDTGYRQKFKNMATLTADISSNTAYMELRSLTSDDSAVYFCARWGYGSGGGFTYWGQGTLVTVSA
VL: DIVLTQSPGSLAVSLGQRATISCRASESVDTYGNSFMHWYQQKAGQPPRLLIYRASNLESGIPARFSGSGSRTDFTLTINPVEADDVATYYCQQSNEDPLTFGAGTKLELKR
notes: Murine monoclonal antibody from hybridoma PTA-8407
**Q.** B1 was tested. Which Kd (human EphA2 receptor [1]) did it give?
**A.** 180 pM

B2: murine anti-EphA2 monoclonal antibody 37.1F5 (antibody, V domains shown)
VH: EVQLQQSGPELVKPGASMKISCRASGYSFTGYTMNWVRQSHGKNLEWIGLINPHNGGSSYNLKFKGKATLTVDKSSSTAYMELLSLTSEDSAVYYCVRWGDYGSFAYWGQGTLVTVSA
VL: B1 VL with G9A, Y32F, N34Y, M37I, H38Y, A44P, L100P, A104G, L110I
notes: Purified murine monoclonal antibody from hybridoma PTA-7661; also called mu37.1F5; 37.1F5 antibody
**Q.** What does the source list for B2?
**A.** Kd (human EphA2 receptor [2]): 10 pM; Kd (human EphA2 receptor [3]): 70 pM; Kd [4]: 50 pM

B3: murine anti-EphA2 monoclonal antibody 37.3D7 (antibody, V domains shown)
VH: QVQLQQPGSELVRPGASVQLSCKASGYSFTSYWMHWVRQRPGQGLQWIGNIYPGTGNTNYDEKFMNKATLTVDTYSSTTYMQLSSLTSEDSAVYYCARWGLVRYFFAMDYWGQGTSVTVSS
VL: QIVLTQSPAIMSASLGERVTMTCTVSSSVNSSYLHWYQQKPGSSPKLWIYSTSNLPSGVPARFSGSGSGTSYSLTISTIESEDAATYYCHQYHRSPQFTFGSGTKLEIKR
notes: Purified murine monoclonal antibody from hybridoma PTA-7660; also called mu37.3D7; 37.3D7 antibody
**Q.** Which results are given for B3?
**A.** binding result (murine EphA2 receptor): binds; Kd (human EphA2 receptor [5]): 300 pM; Kd [4]: 150 pM

B4: murine anti-EphA2 monoclonal antibody 53.2H11 (antibody, V domains shown)
VH: EVQLQQSGPELVKPGASVKISCKASGYSFTAYYMHWVKQSHVKSLEWIGLVNPYNGFSSYNQNFEDKASLTVDKFSSTAYMELHSLTSEDSAVYYCAREFYGYRYFDVWGAGTAVTVSS
VL: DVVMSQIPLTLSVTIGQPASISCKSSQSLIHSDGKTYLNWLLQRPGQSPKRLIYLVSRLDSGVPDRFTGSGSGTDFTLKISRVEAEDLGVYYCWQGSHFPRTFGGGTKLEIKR
notes: Purified murine monoclonal antibody from hybridoma PTA-7662; also called 53.2H11 antibody
**Q.** Does B4 bind (murine EphA2 receptor)?
**A.** binds

**Q.** And the Kd (human EphA2 receptor [2])?
**A.** 60 pM

**Q.** What about the Kd (human EphA2 receptor [3]) of the same binder?
**A.** 140 pM

**Q.** And the Kd [4]?
**A.** 70 pM

B5: murine anti-EphA2 monoclonal antibody EphA2-N2 (antibody, V domains shown)
VH: EVQLQQSGPELVKPGASVKISCKASGYTFTDYNMHWVKQSHGKSLEWIGFIYPYNGGTGYNQRFKNKATLTVDTSSSTAYMEVRSLTSEDSAVYFCARGYYYGRHFDYWGQGTTLTVSS
VL: QIVLTQSPALMSASPGEKVTMTCSASSSVSYMYWYQQKPRSSPKPWIYITSNLASGVPARFSGSGSGTSYSLTISSMEAEDAATYYCQQWSSNPPTFGGGTKLEIKR
notes: Murine monoclonal antibody from hybridoma PTA-8408
**Q.** B5 was tested. Which Kd (human EphA2 receptor [1]) did it give?
**A.** 50 pM
